# Measurements from patent US20210071139A1.
# Columns and labels:
# Experiment in all cases: TOX IP-MS, EL4 nuclear extract, MiST
# Cad = Cad (UniProt B2RQC6)
# Jade2 = Jade2 (UniProt Q6ZQF7)
# Acsl4 = Acsl4 (UniProt Q9QUJ7)
# Ing4 = Ing4 (UniProt Q8C0D7)
# Fubp1 = Fubp1 (UniProt Q91WJ8)
# Rbm42 = Rbm42 (UniProt Q91V81)
# Pusl1 = Pusl1 (UniProt A2ADA5)
# Rrp8 = Rrp8 (UniProt Q9DB85)
# Rpl36; Gm8973 = biological target: Rpl36; Gm8973
# Ppie = Ppie (UniProt Q9QZH3)
# Zfp219 = Zfp219 (UniProt Q6IQX8)
# Acad9 = Acad9 (UniProt Q8JZN5)
# Mphosph10 = Mphosph10 (UniProt Q810V0)
# Srrt = Srrt (UniProt Q99MR6)
# Cdadc1 = Cdadc1 (UniProt Q8BMD5)
# Prrc2a = Prrc2a (UniProt Q7TSC1)
# Dnajc9 = Dnajc9 (UniProt Q91WN1)
substance,measurement,setting,value
Tox (from UniProt Q66JW3 1-526),Abundance,Cad,2.65e-07
same,MiST Score,Cad,0.906
same,Reproducibility,Cad,0.714
same,Specificity,Cad,1
same,Abundance,Jade2,4.26e-06
same,MiST Score,Jade2,0.937
same,Reproducibility,Jade2,0.815
same,Specificity,Jade2,1
same,Abundance,Acsl4,2.9e-06
same,MiST Score,Acsl4,0.968
same,Reproducibility,Acsl4,0.914
same,Specificity,Acsl4,1
same,Abundance,Ing4,0.00024
same,MiST Score,Ing4,0.987
same,Reproducibility,Ing4,0.977
same,Specificity,Ing4,1
same,Abundance,Fubp1,4.54e-06
same,MiST Score,Fubp1,0.984
same,Reproducibility,Fubp1,0.966
same,Specificity,Fubp1,1
same,Abundance,Rbm42,9.15e-06
same,MiST Score,Rbm42,0.969
same,Reproducibility,Rbm42,0.919
same,Specificity,Rbm42,1
same,Abundance,Pusl1,1.19e-05
same,MiST Score,Pusl1,0.925
same,Reproducibility,Pusl1,0.776
same,Specificity,Pusl1,1
same,Abundance,Rrp8,4.13e-06
same,MiST Score,Rrp8,0.969
same,Reproducibility,Rrp8,0.919
same,Specificity,Rrp8,1
same,Abundance,Rpl36; Gm8973,0.00269
same,MiST Score,Rpl36; Gm8973,0.928
same,Reproducibility,Rpl36; Gm8973,0.855
same,Specificity,Rpl36; Gm8973,0.969
same,Abundance,Ppie,1.28e-05
same,MiST Score,Ppie,0.979
same,Reproducibility,Ppie,0.953
same,Specificity,Ppie,1
same,Abundance,Zfp219,8.26e-06
same,MiST Score,Zfp219,0.902
same,Reproducibility,Zfp219,0.836
same,Specificity,Zfp219,0.94
same,Abundance,Acad9,7.35e-06
same,MiST Score,Acad9,0.919
same,Reproducibility,Acad9,0.846
same,Specificity,Acad9,0.959
same,Abundance,Mphosph10,1.33e-05
same,MiST Score,Mphosph10,0.97
same,Reproducibility,Mphosph10,0.924
same,Specificity,Mphosph10,1
same,Abundance,Srrt,2.3e-06
same,MiST Score,Srrt,0.913
same,Reproducibility,Srrt,0.953
same,Specificity,Srrt,0.903
same,Abundance,Cdadc1,0.00034
same,MiST Score,Cdadc1,0.95
same,Reproducibility,Cdadc1,0.882
same,Specificity,Cdadc1,0.988
same,Abundance,Prrc2a,7.11e-07
same,MiST Score,Prrc2a,0.916
same,Reproducibility,Prrc2a,0.862
same,Specificity,Prrc2a,0.948
same,Abundance,Dnajc9,5.16e-05
same,MiST Score,Dnajc9,0.961
same,Reproducibility,Dnajc9,0.892
same,Specificity,Dnajc9,1
